Measured values from patent US20070099268A1, “Chimeric HCN channels” (priority 2005, published 2007).
“Also recorded” adds a separate entry of the source.

Key:
AdHCN2 infected culture = assay: Modulation of spontaneous rate by drugs in an AdHCN2 infected culture; type: cell-based, rat; settings: superfusion with drug; control record of same culture 48, 54 and 96 beats/min respectively
[1] = tested on: neonatal rat ventricular myocytes; assay: Voltage clamp of HCN2 or HCN4 plasmid (lipofectin) expressed in neonatal rat ventricular myocytes; type: cell-based
Source text: cDNAs encoding mouse HCN2 (mHCN2, GenBank AJ225122) or HCN4 (mHCN4, GenBank deposit in progress) were subcloned into the pCI mammalian expression vector (Promega, Madison, Wis.). The resulting plasmids (pCI-mHCN2 or pCI-mHCN4) were used for neonatal rat ventricular myocyte transfection, as indicated. A separate plasmid (pEGFP-CI; Clontech, Palo Alto, Calif.) expressing the gene of enhanced green fluorescent protein (EGFP) as a visual marker for successful DNA transfer was included in all transfection experiments. For transfection, 2 μg of pCI-mHCN and […] of pEGFP-CI were first incubated in 200 μl of SFM containing 10 μl of lipofectin (Gibco Life Technologies, Rockville, Md.) at room temperature for 45 min. The mixture was then added to a 35-mm petri dish containing […] suspended in 0.8 ml of SFM. After overnight incubation at 37° C. in a CO2 incubator, the medium containing the plasmids and lipofectin was discarded and the dish was refilled with 2 ml of fresh SFM.
The whole-cell voltage clamp technique was employed to record native If or expressed IHCN2 or IHCN4. Action potentials were recorded in current clamp mode, again using a whole cell patch electrode. Experiments were carried out on cells superfused at 35° C. Extracellular solution contained (mM): NaCl, 140; NaOH, 2.3; MgCl2, 1; KCl, 5.4; CaCl2, 1.0; HEPES, 5; glucose, 10; pH 7.4. To record from myocytes expressing native currents (If), myocytes expressing HCN2 (IHCN2) or HCN4 (IHCN4), [K^+]0 was increased to 10 mM, and MnCl2 (2 mM) and BaCl2 (4 mM) added to the superfusate to eliminate calcium and inward rectifier (IK1) currents. In some experiments CsCl (4 mM) was used extracellularly to identify the pacemaker current as the Cs-sensitive current. The patch pipette solution included (mM): aspartic acid, 130; KOH, 146; NaCl, 10; CaCl2, 2; EGTA-KOH, 5; Mg-ATP, 2; HEPES-KOH, 10, pH 7.2. Where indicated, 10 μM cAMP was included in the pipette solution. A fast solution changing apparatus expedited the experimental protocols. The pipette resistance was typically 1-3 M. An Axopatch-200B amplifier and pClampS software (Axon Instruments) were used for acquisition and data analysis. […]
The activation relation of the native or expressed current can be determined from the steady-state I-V relation. In this case, the reversal potential (Vf) was separately determined from the fully activated I-V relation (Accili et al., 1991) and used to generate the activation relation (y=I/(gmax*(V−Vf)), where gmax is the maximal conductance). […] Tail currents were measured at a negative voltage (−125 mV) to avoid contamination by transient outward and other currents at less negative voltages. […]

[2] = tested on: mammalian expression systems; settings: cited from earlier work
Xenopus oocytes = assay: Two-microelectrode voltage clamp of mHCN2 and mE324A expressed in Xenopus oocytes; type: cell-based, Xenopus laevis
Protocol: Oocytes were prepared from mature female Xenopus laevis in accordance with an approved protocol as previously described (Yu et al., 2004).
For expression of HCN in Xenopus oocytes, oocytes were injected with 5 ng of cRNA made from mouse wild-type mHCN2 and mutant mHCN2 (E324A) plasmids. Injected oocytes were incubated at 18° C. for 24-48 h prior to electrophysiological analysis.
For measurements in Xenopus oocytes, oocytes were voltage-clamped using a two-microelectrode voltage clamp technique. The extracellular recording solution (OR2) contained (in mM): NaCl, 80; KCl, 2; MgCl2, 1; and Na-HEPES, 5 (pH 7.6). For the recording of steady state activation of expressed Wt mHCN2, currents were elicited by 2-s long hyperpolarizing pulses between −30 mV and −160 mV with 10 mV increments, followed by a 1-s depolarizing pulse to +15 mV. The holding potential was −30 mV. As to the mHCN2 (E324A), currents were elicited by 3-s-long hyperpolarizing pulses between +20 mV and −130 mV with 10 mV increments, followed by a 1 second depolarizing pulse to +50 mV. The holding potential was +20 mV. To construct the current/voltage relationship for wildtype (Wt) mHCN2, the cell was held at […], the current was elicited by a 2-s hyperpolarizing voltage step to −140 mV to saturate activation, and followed by 2-s depolarizing voltage steps between […] and +50 mV in 10 mV increments. For mHCN2 (E324A), the cell was held at +20 mV, current was elicited by a 1.5-s hyperpolarizing voltage step to −110 mV to saturate activation, and then followed by 1.5-s depolarizing voltage steps between −80 mV and +50 mV in 10 mV increments for the recording of tail currents. To record the current amplitudes for Wt mHCN2, the current was evoked by applying a 3-s hyperpolarizing voltage pulse to −120 mV from a holding potential of −30 mV. For mHCN2 (E324A), the current was evoked by applying a 3-s hyperpolarizing voltage pulse to −120 mV from a holding potential of +20 mV.

[3] = tested on: cell-free patches from Xenopus oocytes; settings: binding of cAMP to the CNBD; cited from earlier work

CCN(c1ccccc1)c1cc(=NC)n(C)c(C)n1.Cl [ZD-7288]
spontaneous rate during drug exposure (AdHCN2 infected culture): 78 beats/min

C[N+](C)(C)CCOC(N)=O [carbachol]
spontaneous rate during drug exposure (AdHCN2 infected culture): 45 beats/min

B1: HCN4: mouse HCN4 channel isoform (protein, UniProt O70507 1-1201, looked up)
Potassium/sodium …: MDKLPPSMRKRLYSLPQQVGAKAWIMDEEEDGEEEGAGGRQDPSRRSIRLRPLPSPSPSVAAGCSESRGAALGATESEGPGRSAGKSSTNGDCRRFRGSLASLGSRGGGSGGAGGGSSLGHLHDSAEERRLIAAEGDASPGEDRTPPGLATEPERPATAAQPAASPPPQQPPQPASASCEQPSADTAIKVEGGAAASDQILPEAEVRLGQSGFMQRQFGAMLQPGVNKFSLRMFGSQKAVEREQERVKSAGFWIIHPYSDFRFYWDLTMLLLMVGNLIIIPVGITFFKDENTTPWIVFNVVSDTFFLIDLVLNFRTGIVVEDNTEIILDPQRIKMKYLKSWFVVDFISSIPVDYIFLIVETRIDSEVYKTARALRIVRFTKILSLLRLLRLSRLIRYIHQWEEIFHMTYDLASAVVRIVNLIGMMLLLCHWDGCLQFLVPMLQDFPHDCWVSINGMVNNSWGKQYSYALFKAMSHMLCIGYGRQAPVGMSDVWLTMLSMIVGATCYAMFIGHATALIQSLDSSRRQYQEKYKQVEQYMSFHKLPPDTRQRIHDYYEHRYQGKMFDEESILGELSEPLREEIINFNCRKLVASMPLFANADPNFVTSMLTKLRFEVFQPGDYIIREGTIGKKMYFIQHGVVSVLTKGNKETKLADGSYFGEICLLTRGRRTASVRADTYCRLYSLSVDNFNEVLEEYPMMRRAFETVALDRLDRIGKKNSILLHKVQHDLNSGVFNYQENEIIQQIVRHDREMAHCAHRVQAAASATPTPTPVIWTPLIQAPLQAAAATTSVAIALTHHPRLPAAIFRPPPGPGLGNLGAGQTPRHPRRLQSLIPSALGSASPASSPSQVDTPSSSSFHIQQLAGFSAPPGLSPLLPSSSSSPPPGACGSPPAPTPSTSTAAAASTTGFGHFHKALGGSLSSSDSPLLTPLQPGARSPQAAQPPPPLPGARGGLGLLEHFLPPPPSSRSPSSSPGQLGQPPGELSLGLAAGPSSTPETPPRPERPSFMAGASGGASPVAFTPRGGLSPPGHSPGPPRTFPSAPPRASGSHGSLLLPPASSPPPPQVPQRRGTPPLTPGRLTQDLKLISASQPALPQDGAQTLRRASPHSSGESVAAFSLYPRAGGGSGSSGGLGPPGRPYGAIPGQHVTLPRKTSSGSLPPPLSLFGARAASSGGPPLTTAAPQREPGARSEPVRSKLPSNL
activation kinetics compared to HCN2 ([1]; for most voltages): markedly slower | slope factor (K) ([1]; lipofectin transfection): 6.7±0.7 mV | midpoint of activation reported in other mammalian expression studies [2]: −80 to −109 mV

B2: mE324A: mHCN2 with glutamate at position 324 mutated to alanine (protein, UniProt O88703 1-863, looked up, variant E324A)
Potassium/sodium …: MDARGGGGRPGDSPGTTPAPGPPPPPPPPAPPQPQPPPAPPPNPTTPSHPESADEPGPRARLCSRDSACTPGAAKGGANGECGRGEPQCSPEGPARGPKVSFSCRGAASGPSAAEEAGSEEAGPAGEPRGSQASFLQRQFGALLQPGVNKFSLRMFGSQKAVEREQERVKSAGAWIIHPYSDFRFYWDFTMLLFMVGNLIIIPVGITFFKDETTAPWIVFNVVSDTFFLMDLVLNFRTGIVIEDNTEIILDPEKIKKKYLRTWFVVDFVSSIPVDYIFLIVEKGIDSEVYKTARALRIVRFTKILSLLRLLRLSRLIRYIHQWAEIFHMTYDLASAVMRICNLISMMLLLCHWDGCLQFLVPMLQDFPSDCWVSINNMVNHSWSELYSFALFKAMSHMLCIGYGRQAPESMTDIWLTMLSMIVGATCYAMFIGHATALIQSLDSSRRQYQEKYKQVEQYMSFHKLPADFRQKIHDYYEHRYQGKMFDEDSILGELNGPLREEIVNFNCRKLVASMPLFANADPNFVTAMLTKLKFEVFQPGDYIIREGTIGKKMYFIQHGVVSVLTKGNKEMKLSDGSYFGEICLLTRGRRTASVRADTYCRLYSLSVDNFNEVLEEYPMMRRAFETVAIDRLDRIGKKNSILLHKVQHDLSSGVFNNQENAIIQEIVKYDREMVQQAELGQRVGLFPPPPPPQVTSAIATLQQAVAMSFCPQVARPLVGPLALGSPRLVRRAPPGPLPPAASPGPPAASPPAAPSSPRAPRTSPYGVPGSPATRVGPALPARRLSRASRPLSASQPSLPHGVPAPSPAASARPASSSTPRLGPAPTARTAAPSPDRRDSASPGAASGLDPLDSARSRLSSNL
activation threshold (Xenopus oocytes): around −30 mV | slope (s) with cAMP (Xenopus oocytes; 8-Br-cAMP 1 mM): 19.7 mV | Vh with cAMP (Xenopus oocytes; 8-Br-cAMP 1 mM extracellular): −48.9 mV | effect of Cs+ on inward current (Xenopus oocytes; Cs+ 5 mM): blocked; also recorded: large inhibition | slope (s), control (Xenopus oocytes; control): 15.2 mV | reversal potential of IHCN2 (Xenopus oocytes; fully activated current/voltage relation): ~−40 mV | half maximal activation (Vh), control (Xenopus oocytes; oocytes, control): −57.3 mV | induced current (Xenopus oocytes; single voltage pulse to −120 mV): 579.8±18.2 nA

B3: HCN1: mouse HCN1 channel isoform (protein)
chain: MEGGGKPNSASNSRDDGNSVFPSKAPATGPVAADKRLGTPPGGGAAGKEHGNSVCFKVDGGGGEEPAGSFEDAEGPRRQYGFMQRQFTSMLQPGVNKFSLRMFGSQKAVEKEQERVKTAGFWIIHPYSDFRFYWDLIMLIMMVGNLVIIPVGITFFTEQTTTPWIIFNVASDTVFLLDLIMNFRTGTVNEDSSEIILDPKVIKMNYLKSWFVVDFISSIPVDYIFLIVEKGMDSEVYKTARALRIVRFTKILSLLRLLRLSRLIRYIHQWEEIFHMTYDLASAVVRIFNLIGMMLLLCHWDGCLQFLVPLLQDFPPDCWVSLNEMVNDSWGKQYSYALFKAMSHMLCIGYGAQAPVSMSDLWITMLSMIVGATCYAMFVGHATALIQSLDSSRRQYQEKYKQVEQYMSFHKLPADMRQKIHDYYEHRYQGKIFDEENILSELNDPLREEIVNFNCRKLVATMPLFANADPNFVTAMLSKLRFEVFQPGDYIIREGAVGKKMYFIQHGVAGVITKSSKEMKLTDGSYFGEICLLTKGRRTASVRADTYCRLYSLSVDNFNEVLEEYPMMRRAFETVAIDRLDRIGKKNSILLQKFQKDLNTGVFNNQENEILKQIVKHDREMVQAIPPINYPQMTALNCTSSTTTPTSRMRTQSPPVYTATSLSHSNLHSPSPSTQTPQPSAILSPCSYTTAVCSPPIQSPLATRTFHYASPTASQLSLMQQPQQQLPQSQVQQTQTQTQQQQQQQQQQQQQQQQQQQQQQQQQQQQQQQQQQQQQPQTPGSSTPKNEVHKSTQALHNTNLTKEVRPLSASQPSLPHEVSTLISRPHPTVGESLASIPQPVAAVHSTGLQAGSRSTVPQRVTLFRQMSSGAIPPNRGVPPAPPPPAAVQRESPSVLNTDPDAEKPRFASNL
shift of activation curve to more positive potentials by cAMP [3]: 4 mV
